Consider one protein from publication doi:10.1101/2025.04.23.650173 (bioRxiv, 2025).

Read-outs that look alike come from different tables or passages of the source.

Data set [1] deals with the molecule itself. In words: AUC.
Data set [2] concerns the molecule itself. As to the kind of experiment: AUC. This is another data set of the same source.

For orientation: stoichiometry N means a count of units in the complex or per binding partner.

B1: wild type murine CXCL4 (natural protein, mouse, UniProt Q9Z126 30-105, looked up)
chain: VTSAGPEESDGDLSCVCVKTISSGIHLKHITSLEVIKAGRHCAVPQLIATLKNGRKICLDRQAPLYKKVIKKILES
As for B1, the “stoichiometry N” value was found to be 2 in the data set “AUC [1]” and 4 in “AUC [2]”.
